Target: T1, human BTLA (B and T lymphocyte attenuator), BTLA isoform 1 precursor (Homo sapiens) (human, UniProt Q7Z6A9 31-289)
T1 construct: BTLA was presented on CD3+ T cells of PBMC, on COS cells transfected with human BTLA in p3xFlag-myc-CMV25 (this construct may carry tags; not described), and on L-BTLA fibroblasts stably transfected with human BTLA; also called CD272
Assay: flow cytometry on CD3+ T cells among PBMC, 0.01-10 ug/ml
Protocol: T cells (CD3+) among PBMC were stained for BTLA with the anti BTLA mAbs at various concentration (from 0.01 μg/ml to 10μ,g/ml). […] Then COS transfected with human BTLA were incubated with the anti BTLA mAbs and then with HVEM-Fc before staining with an anti human IgG Fc PE. The percentage of inhibition was determined as 100-maximum of percentage of stained cells. […] The median fluorescence intensity of cells was determined. […] On the other hand, 7.1 and 8.2 antibodies were not able to compete against 4C7 mAb at a high dose (FIG. 3). […] Finally, γδT were obtained after a positive sorting of fresh purified PBMC and stained for Cell Trace Violet to follow the proliferation. Cells were incubated 5 days in IL2/Zometa with the different mAbs prior to analysis by flow cytometry. The addition of antibodies in the culture of the γδT lead to an upregulation of their proliferation. Cells incubated with the HVEM 18.10 mAb disclosed in WO2014184360 is able to proliferate more than cells incubated with the mock control (IgG1) (FIG. 4).

B1: 629.3 mAb (antibody, V domains shown)
VH: QVQLRESGPGLVAPSQSLSITCTVSGFSLNTYGVSWVRQPPGKGLEWLGVVWGDGNTNYHSVVISRLTINKDNSKSQVFLKLNSLQTDDTATYYCAKCYGSRFDYAMDYWGQGTSVTVSS
VL: DIVMSQSPSSLAVSIGEQVTMSCKSSQSLLSSRTRKNYLAWYQQRPGQSPKLLIYWASTRESGVPDRFTGSGSGTDFTLTISSVQAEDLAVYYCKQSYNLPTFGGGTRLEIK
notes: Mouse monoclonal antibody, detected with anti-mouse IgG
B1: binds.

From patent publication US20230183346A1 (INSERM INSTITUT NATIONAL DE LA SANTE ET DE LA RECHERCHE …, published 2023)
